A protein production outcome set (Wang et al. 2014)

Assay: label from the status in PepcDB records
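Further: failed if final PepcDB status was selected cloned or expressed and not failed if soluble or beyond.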

Sequence | protein production
QQNIVLSIQDRLQQLPKSERKIAEYILKNTETVISMNAQELAKQAGSSPAAIIRFCHSMDVNGFTELKLLLSANLGQMKQQMYTEVTKGESTADIKQKLQARFVHVVERSGQTLE | not failed
QRLSNSIINSLASGEGVVEALRTMKNDGVISGMFKLEQGKFNRSIENLVRTEYSHFAVEGVRKSLKDIGVKQTQSWSAEDERVCSICGGRHGKEIKDDWHPPYHGRCRCTEI | failed
QSQGGGSVTKKRKLESSESRSSFSQHARTSGRVAVEEVDEEGKFVRLRNKSNEDQSMGNWQIRRQNGDDPLMTYRFPPKFTLKAGQVVTIWASGAGATHSPPTDLVWKAQNTWGCGSSLRTALINSTGEEVAMRKLVR | not failed
QTLLQANPDPVLVADAETGKIVEANAAATGLLGRPREEIIGAHQTDLHPSGRAEAYASLFRRSLDEDGPMRALPDGTQIEVVTDEGTTVPVEVNATTVDLPDGRVVYGVFRDVSE | failed
QTPVYLDTSKPIEERVKDALSRMTLEEKVKMTHAQSKFSSPGVPRLGIPEVWATDGPHGIRPEVLWDEWDQAGWTNDSCIAYPALTCLSATWNPEMSYLYGKSIGEEARYRKKDILLGPGVNIYRTPLNGRNFEYMGEDPYLSSMMVVPYIKGVQENGVAACVKHYALNNQEFNRHTTNVHLSDRALYEIYLPAFKAAVQEGGAWAIMGAYNLYSFSEDTDSGKLYKTQHACHNKRLLQDILRKEWGFDGVVVSDWGGVHDTFQAISNGLDMEFGSWTNGLSAGTRNAYDNYYLAHPYLKLIQDGTVGTKELDEKVSNILRLIFRTSMNPH | failed
QTQALFMNTRRAVFKERALRQALGEMFDFEWTNRALFSNSYLRSRSYYPNSEFAASGVPEGQEWLYLSPYRKQLPAQLFKQPFSLPTTEGRGIPRETLRHALGLLADAGWKLSGDRLLNKKGEPLRFEILLVNPSLERILQPYRENLASIGIDARLRTVDRAQYKQRLDQFDYDMILMTLPQTLSPGLEQWQYFHSSQVKVKGSKNYAGIANPVVDAMLNRLLGAHSRDEQVAAARALDRTLLWQYYSIPNWYLN | failed
QTVNHELQSKVSELSEANNDMKNLLNSTDIATLFLDDSLNIRRFTTRTASIIKLIASDIGRPITDIVTDLHYPALADDAQEVLRTLIFREKQVSANNDRWFSVKIMPYRTQENKIVGLVITFSDITTSKKLEA | failed
QVGIYRTRTCDGLILNANQRFADLFGFDSPQEIIGIEHTIGYWVNPSDRQQGIEVMKRDGEVRSYEAQMRKRDGTVFWGLFSSYLNAGDDYIEGVIADISDVYDELRLRKQAEVALQASEAELRSLFSAIPDPLCVVTAQ | failed
QVKRQTRRVASATYMVSLLDSQIDSPATLFIDEQALEAAKRRSYQRGVLEGSEMSRVFSWMRPNDLIWTYWINNYLLGKSPPPFDILYWNNDTTRLPAALHGDLLDFFKHNPLSHAGGLEVCGTPIDLQKVTVDSFSVAGINDHITPWDSVYRSTLLLGGDRRFVLANSGHVQSILNP | not failed
QVYKAKFGTPNRGWVIIVHGLGEHSGRYSKLVSMLVNEGYAVYTFDWPGHGKSPGKRGHTSVEEAMEIIDFIIEEINDKPFLFGHSLGGLTVIRYAETRPEKIRGVIASSPALAKSPKTPSFMVALAKILGVLLPSLTLSNGIDPNLLSRNPDAVKRYIEDPLVHDRISAKLGRSIFKNMDLAHREAHKIKVPVLLLVGTGDVITPPEGARKLYGEIKVEDKEIVEFEGAYHEIFEDPEWGEEFHKKIVEWIKKH | not failed
RDIGKESLEKAPEVELVNSAEEGNAVVLDIRSPDEEDESPLEIVGVEVKHLPFYKLATQFGDLDQSKTYLLYCSRGVMSRLQALYLQEQGFNNVKVYR | failed
RDRSTIARIQFRLPDGSSFTNQFPSDAPLEEARQFAAQTVGNTYGNFSLATMFPRREFTREDYKRRLLDLELAPSASVVLLPAGRPATSIVHSSSGDILMID | not failed
RERLLSEAKATLQNYVAIAMTAIKPLYDAAAPGDEAARANAIKLLSAVSYGKDGYLFGYDSQVVRIFRSTSPDGLGKSFVDARDANGVYINR | failed
RERLRFERDHFRILVDVTNTVISKLELDVLAAEVSKEIHRFFNIDYISLAICGTHNDKNKLNVFSTRYQSGQAVQHQQTWVDMTGTLAGQVLHSRELLLVNLADIALLAPDDKQLASMLDAGLQAVCLLPLFFGHKMLGVLKLAQCQSDIFTGSNLKLLRQIAARIAIAVDNALAYNEITRLKDS | failed
RFEGGDHDLIPNNDAQNAAVNRALNAEDFALVHGPPGTGKTYTIATLVQAFVARGDRVLVSAFTNRAVDNALDALRQQGHEDIVRVGTETGVRADMQDLRLDRSGDPGERAAALRSAPVVAATTATCGSRILRELEFDVVLVDEASQLTEPDTLAAINRGARFVLVGDHEQ | failed
RIVLRREFEGNGILDGIGKKIEEGDYDIVEYNSDKWYQIHKYYSGIDNSLKGVYINISTPPELLRGKIRYLDLEIDIAIRDSEIALLDEDELNKKSIYMPSS | failed
RNRRREEAARHYLECVLDGLTTGVVVFDEKGRLKTFNKAAEQILGMPLAPLWGSSRHGWHGVSAQQSLLAEVFAAIGAAAGTDKPVQVEYAAPDDAKILLGKATVLPEDNGNGVVMVIDDIT | failed

Sequence | protein production
RNVWVVAELDEQGVSEASLQMLTPARRIADKLGESVVGVIAGPPGSSQLAVEMVERGADEVIVVEHERLSEYYPDVVGSVIVELSLKYKPSVILFAATARGREMAPYVANTLKTGITADCTDFDVDPKTRDVLLIRPPFSAIMLAYIRTPFRRPQIGTARPNVFPLPERQPGRQGRIVREEVEPPEPMARLVNRV | not failed
RPQGLHLELETRLQKMYGIRQVIVVEATEPDDEESIKQAIGSAAAHYLETSLSAQDHIGISSWSSTIRAMVSHMHPQPGKQSAQEVVQLLGGVGNKGAFEATLLTQRLATLLNCPAFLLPSQSIEQSVESKQRIVEMEEVKEVLHRFDSITLAIVGIGELEPSQLLRNSGNYYTEDMLRVLAERGAVGDICLRYFDAQGKPVLEEDEEFVVSMGLGKLRSINRVLGLAGGVRKVQAIKGALLGGYLDVLITDVGTARGLGG | not failed
RRENHQTIQEFLERIHLQEYTSTLLLNGYETLDDLKDIKESHLIELNIADPEDRARLLSAAESLL | not failed
RSFGLIIPDLENTSYARLAKLIEQNSRKAGYQILIGCSDDDPETEKKVAEALISRRIDALFVASGMPSANEYYLKLQNSGTPVIALDRPMDDEHFCCVISEDFDAAFELTESVLSPEIKTIGLIGALQDLQVSKERELGFRSACQKDDTAMTVGYGLHFSREEGKKVLDKWVQADSLPDAIVTTSYTLLEGVLDVMLEKPELMSQVRLATFGDNRLLDFLPVKINSLPQQFELIADSAMELALNASAKRYKPGVELIPRKIVKRQ | failed
RSKTVILAKNLPAGTLAAEIQETFSRFGSLGRVLLPEGGITAIVEFLEPLEARKAFRHLAYSKFHHVPLYLEWAPIGVFGAAPQKKDSQHEQPAEKAE | not failed
SAQDEEDRVLIHFNVRDIKIGPECHDVQPPEGRSRDGLLTVNLREGGRLHLCAETKDDALAWKTALLEANSTPVRVYSPYQDYYEVVPPNAHEATYVRSYYGPPYAGPGVTHVIVREDPCYSAGAPLAMGMLAGAATGAALGSLMWSPCWF | failed
SAQSLSSEPDILFLDGWQLRYQAFAARADDPRPPVLLLGGAFQSFRSFTGEVSELLAEHPVILLDLPSQGGNLQLAAELSLEDLADLIAAFAEQLGLPPLMPIGLSYGSALAALFAARHPRRCARLLLAGITAFGRPGARLLLEEALARLDEGDQSAFAHGVLTGLINPLQLERTGVSPVFRKAMLRQLQRLTAAEIERYRQNSRRLLAFGGFERHPTCPTLVLAGEYDHFTQPWEHAVFAHACGNAEFALIHDADHLAQFERREACARLYGPFLRG | failed
SAWALKLPLADEVIESGLVQDFDASLSGIGQELGAGAYSMSDVLALPIFKQEESSLPPDNENKILPFQYVLCAATSPAVKLHDETLTYLNQGQSYEIRMLDNRKLGELPEINGKLVKSIFRVVFHDRRLQYTEHQQLEGWRWNRPGDRILDIDIPMSVGIIDPRANPTQLNTVEFLWDPAKRTSVFIQVHCISTEFTMRKHGGEKGVPFRVQIDTFKENENGEYTEHLHSASCQIKVFKPKGADRKQKTDREKMEKRTPHEKEKYQPSYETTILTECSPWPEITYVNNSPSPGFNSSHSSFSLGEGNGSPNHQPEPPPPVTDNLLPTTTPQEAQQWLHRNRFSTFTRLFTNFSGADLLKLTRDDVIQICGPADGIRLFNALKGRMVRPRLTIYVCQESLQLREQQQQQQQQQQKHEDGDSNGTFFVYHAIYLEELTAVELTEKIAQLFSISPCQISQIYKQGPTGIHVLISDEMIQNFQEEACFILDTMKAETNDSYHIILK | failed
SDIVRKTIDNDISTKWRLKTLSEKLNLSEVTIRKKLENENTNFYRILLDARMQKAARLVLDSDTHINKVSYAVGMSSVSYFIKLFSDYYGLTPKQFHLKYKHRNTGEKAAFMLYN | failed
SDMGTSALSKKPWWTLPQNFHAPMVFHMEEDQEELIFGHGDTYLRCIEVHSHTLIQLESWFTATGQTRVTVGPHRARQWLLHMFCCVGSQDSYHHARGLEMLERVRSQPLTNDDLVTSISVPPYTGDLSLAPRISGTVCLSVPQPSPYQVIGCSGFHLSSLYP | failed
SDRGQAEEAAGRQARAVSLAIADSPSVAEAIRTPDPTALLQPYAVRVMRDTDVDFVTIMNPEGIRWTHPEPTEIGHLFQGHIERAQRGQTFTETYTGTLGPSVRAVTPIVDDGRIVGLVSAGIKVEEIS | failed
SDSLETTQQDYPDCFFQHVKVNVKNPYDLTRQVCSSMDQWLTERLDSEPLSLAILVDSATSILYLSNQSNSFSLLFHYLRVMGRKLSPTLYCVCQLIHFDMGYGDELLKEAKFYDSLILQLDALPLGVPSEQDGRLSIEERDQAISTVLFKILENQIKFFTI | failed
SDWLWQTDAHGRLVHVPERFVEVAKLPPSLLIGAPLADVIGMLCPEDGRCAMGVAAKMAQREPMNDLVVHVVIGGTPRLWSLTAKPMFDAAGEFAGYRGVGRDVTERWRAEQAEAENRAKSSFLAMMSHEIRTPMNGVLGLANSLLETK | failed
SDYEKFLLFGDSITEFAFNTRPIEDGKDQYALGAALVNEYTRKMDILQRGFKGYTSRWALKILPEILKHESNIVMATIFLGANDACSAGPQSVPLPEFIDNIRQMVSLMKSYHIRPIIIGPGLVDREKWEKEKSEEIALGYFRTNENFAIYSDALAKLANEEKVPFVALNKAFQQEGGDAWQQLLTDGLHFSGKGYKIFHDELLKVIETFYPQYHPKNMQYKLKDWRDVLDDGSNIMS | not failed
SEAEGNQVYFAVYTFKARNPNELSVSANQKLKILEFKDVTGNTEWWLAEVNGKKGYVPSNYIRKTE | not failed
SEEDNRAPQLWRKTLTAPAPFADETNCQCQAPHEKLTIAQARLGTPADRPVRVYADGIFDLFHSGHARALMQAKTLFPNSYLLVGVCSDDLTHKFKGFTVMNEAERYEALRHCRYVDEVIRDAPWTLTPEFLEKHKIDFVAHDDIPYSSAGSDDVYKHIKEAGMFVPTQRTEGISTSDIITRIVRDYDVYARRNLQRGYTAKELNVSFINEKRYRFQNQVDKMKEKVKNVEERSKEFVNRVEEKSHDLIQKWEEKSREFIGNFLELFGPDGAWKQMFQERSSRMLQALSPKQSPVSSPTRSRSPSRSPSPTFSWLPLKTSPPSSPKAASASISSMSEGDEDEK | failed
